Results reported in patent publication EP4039268A1 (IMBA-Institut für Molekulare Biotechnologie GmbH, dated 2022).

How the values were obtained:
[1] = biological target: T1, full-length trimeric SARS-CoV-2 Spike protein (Spike-H6) (SARS-CoV-2, N-glycosylated (22 N-glycosylation sites)); assay: ELISA screen
T1 construct: also called trimeric Spike; full-length Spike-H6

[2] = biological target: T2, human recombinant soluble ACE2 (human, UniProt Q9BYF1 18-740); assay: ELISA screen
T2 construct: also called hrsACE2
T2 sequence (Q9BYF1 18-740 limits assumed): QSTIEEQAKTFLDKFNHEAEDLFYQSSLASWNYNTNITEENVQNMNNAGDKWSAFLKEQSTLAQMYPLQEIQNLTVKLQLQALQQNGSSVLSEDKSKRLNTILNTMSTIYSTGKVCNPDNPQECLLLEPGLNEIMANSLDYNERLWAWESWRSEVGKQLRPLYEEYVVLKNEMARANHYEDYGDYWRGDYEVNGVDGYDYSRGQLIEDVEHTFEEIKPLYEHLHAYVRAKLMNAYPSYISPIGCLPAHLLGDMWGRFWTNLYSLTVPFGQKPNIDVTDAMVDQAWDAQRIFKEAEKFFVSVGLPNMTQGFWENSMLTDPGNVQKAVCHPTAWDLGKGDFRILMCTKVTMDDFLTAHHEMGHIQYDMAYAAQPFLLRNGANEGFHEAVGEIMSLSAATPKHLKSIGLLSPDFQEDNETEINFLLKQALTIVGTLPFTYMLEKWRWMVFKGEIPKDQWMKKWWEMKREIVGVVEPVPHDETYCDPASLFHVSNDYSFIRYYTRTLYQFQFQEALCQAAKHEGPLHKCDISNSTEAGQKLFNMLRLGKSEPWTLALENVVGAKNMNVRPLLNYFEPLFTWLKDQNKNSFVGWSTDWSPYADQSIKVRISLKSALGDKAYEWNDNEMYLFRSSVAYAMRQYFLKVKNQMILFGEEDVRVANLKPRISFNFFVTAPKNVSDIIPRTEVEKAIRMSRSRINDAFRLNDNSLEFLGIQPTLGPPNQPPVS

[3] = biological target: T3, monomeric SARS-CoV-2 receptor binding domain (RBD-H6) (SARS-CoV-2, UniProt P0DTC2 319-541); assay: ELISA screen
T3 construct: Made in HEK293-6E cells; also called RBD Spike; monomeric RBD

[4] = biological target: T2, human recombinant soluble ACE2; assay: ELISA

B1: Cd209a CRD-mouse IgG2a-Fc fusion protein (Fc fusion)
chain: FQGSCYFFSVAQKSWNDSATACHNVGAQLVVIKSDEEQNFLQQTSKKRGYTWMGLIDMSKESTWYWVDGSPLTLSFMKYWSKGEPNNLGEEDCAEFRDDGWNDTKCTNKKFWICKGGGSGGGSGGGS
Mean normalized OD [1]: 0.014 OD
Mean normalized OD [2]: 0.049 OD
Mean normalized OD [3]: 0.028 OD
binding result [4]: no binding (tested: 10 µg/ml)

B2: Lgals12_2 CRD-mouse IgG2a-Fc fusion protein (Fc fusion)
chain: CSRALPRGLWPGQVIVVRGLVLKEPKDFTLSLKDGTTHVPVTLRASFTDRTLAWVSSWGRKKLISAPFLFHPQRFFEVLLLCQEGGLKLALNGQGLGATSLDQKALEQLRELRISGNVHLYCVHCGGGSGGGSGGGS
Mean normalized OD [1]: 0.025 OD
Mean normalized OD [2]: 0.031 OD
Mean normalized OD [3]: 0.009 OD
binding result [4]: no binding (tested: 10 µg/ml)

B3: Lgals2 CRD-mouse IgG2a-Fc fusion protein (Fc fusion)
chain: KFEVKDLNMKPGMSLKIKGKIHNDVDRFLINLGQGKETLNLHFNPRFDESTIVCNTSEGGRWGQEQRENHMCFSPGSEVKITITFQDKDFKVTLPDGHQLTFPNRLGHNQLHYLSMGGLQISSFKLEGGGSGGGSGGGS
Mean normalized OD [1]: 0.035 OD
Mean normalized OD [2]: 0.031 OD
Mean normalized OD [3]: 0.018 OD
binding result [4]: no binding (tested: 10 µg/ml)

B4: Lgals4_2 CRD-mouse IgG2a-Fc fusion protein (Fc fusion)
chain: YVGALQGGLTVRRTIIIKGYVLPTARNFVINFKVGSSGDIALHLNPRIGDSVVRNSFMNGSWGAEERKVAYNPFGPGQFFDLSIRCGMDRFKVFANGQHLFDFSHRFQAFQMVDTLEINGDITLSYVQIGGGSGGGSGGGS
Mean normalized OD [1]: 0.034 OD
Mean normalized OD [2]: 0.031 OD
Mean normalized OD [3]: 0.014 OD
binding result [4]: no binding (tested: 10 µg/ml)

B5: Lgals8_1 CRD-mouse IgG2a-Fc fusion protein (Fc fusion)
chain: YVGTITEQLKPGSLIVIRGHVPKDSERFQVDFQLGNSLKPRADVAFHFNPRFKRSSCIVCNTLTQEKWGWEEITYDMPFRKEKSFEIVFMVLKNKFQVAVNGRHVLLYAHRISPEQIDTVGIYGKVNIHSIGFRGGGSGGGSGGGS
Mean normalized OD [1]: 0.019 OD
Mean normalized OD [2]: 0.062 OD
Mean normalized OD [3]: 0.031 OD
binding result [4]: no binding (tested: 10 µg/ml)

B6: Lgals8_2 CRD-mouse IgG2a-Fc fusion protein (Fc fusion)
chain: FEARLNASMGPGRTVVIKGEVNTNARSFNVDLVAGKTRDIALHLNPRLNVKAFVRNSFLQDAWGEEERNITCFPFSSGMYFEMIIYCDVREFKVAINGVHSLEYKHRFKDLSSIDTLSVDGDIRLLDVRSWGGGSGGGSGGGS
Mean normalized OD [1]: 0.037 OD
Mean normalized OD [2]: 0.074 OD
Mean normalized OD [3]: 0.012 OD
binding result [4]: no binding (tested: 10 µg/ml)

B7: Lgalslb CRD-mouse IgG2a-Fc fusion protein (Fc fusion)
chain: YFRGHIKGGMRPGKKVLVMGIVDHNPKSFAISLTCGDSEDPPADVAIELKVVFTNQQVFRNSCISGESDEENLAFPYFPFVPDQPFRMEIFCQQPCFRVLVDGHHLFDFYHRIQTLSAIDSIKISGDLQIGGGSGGGSGGGS
Mean normalized OD [1]: 0.026 OD
Mean normalized OD [2]: 0.047 OD
Mean normalized OD [3]: 0.01 OD
binding result [4]: no binding (tested: 10 µg/ml)

B8: Ly75_6 CRD-mouse IgG2a-Fc fusion protein (Fc fusion)
chain: FQNKCFLKVNSGPVTFSQASGICHSYGGTLPSVLSRGEQDFIISLLPEMEASLWIGLRWTAYERINRWTDNRELTYSNFHPLLVGRRLSIPTNFFDDESHFHCALILNLKKSPLTGTWNFTSCSERHSLSLCQKGGGSGGGSGGGS
Mean normalized OD [1]: 0.007 OD
Mean normalized OD [2]: 0.005 OD
Mean normalized OD [3]: 0.003 OD
binding result [4]: no binding (tested: 10 µg/ml)

B9: Ly75_8 CRD-mouse IgG2a-Fc fusion protein (Fc fusion)
chain: FQNSCYNFMITNNRHKTVTPEEVQSTCEKLHSKAHSLSIRNEEENTFVVEQLLYFNYIASWVMLGITYENNSLMWFDKTALSYTHWRTGRPTVKNGKFLAGLSTDGFWDIQSFNVIEETLHFYQGGGSGGGSGGGS
Mean normalized OD [1]: 0.011 OD
Mean normalized OD [2]: 0.054 OD
Mean normalized OD [3]: 0.007 OD
binding result [4]: no binding (tested: 10 µg/ml)

B10: Mbl2 CRD-mouse IgG2a-Fc fusion protein (Fc fusion)
chain: KVGKKYFVSSVKKMSLDRVKALCSEFQGSVATPRNAEENSAIQKVAKDIAYLGITDVRVEGSFEDLTGNRVRYTNWNDGEPNNTGDGEDCVVILGNGKWNDVPCSDSFLAICEGGGSGGGSGGGS
Mean normalized OD [1]: 0.14 OD
Mean normalized OD [2]: 0 OD
Mean normalized OD [3]: 0.001 OD
binding result [4]: no binding (tested: 10 µg/ml)

B11: Mrc1_1 CRD-mouse IgG2a-Fc fusion protein (Fc fusion)
chain: LTGILYQINSKSALTWHQARASCKQQNADLLSVTEIHEQMYLTGLTSSLSSGLWIGLNSLSVRSGWQWAGGSPFRYLNWLPGSPSSEPGKSCVSLNPGKNAKWENLECVQKLGYICKGGGSGGGSGGGS
Mean normalized OD [1]: 0.109 OD
Mean normalized OD [2]: 0.161 OD
Mean normalized OD [3]: 0.076 OD
binding result [4]: no binding (tested: 10 µg/ml)

B12: Mrc1_2 CRD-mouse IgG2a-Fc fusion protein (Fc fusion)
chain: YAGHCYRIHREEKKIQKYALQACRKEGGDLASIHSIEEFDFIFSQLGYEPNDELWIGLNDIKIQMYFEWSDGTPVTFTKWLPGEPSHENNRQEDCVVMKGKDGYWADRACEQPLGYICKGGGSGGGSGGGS
Mean normalized OD [1]: -0.028 OD
Mean normalized OD [2]: 0 OD
Mean normalized OD [3]: 0.106 OD
binding result [4]: no binding (tested: 10 µg/ml)

B13: Cd209d CRD-mouse IgG2a-Fc fusion protein (Fc fusion)
chain: FFNGSCYFFSKSQRNWHNSTTACQELGAQLVIIETDEEQTFLQQTSKARGPTWMGLSDMHNEATWHWVDGSPLSPSFTRYWNRGEPNNVGDEDCAEFSGDGWNDLSCDKLLFWICKGGGSGGGSGGGS
Mean normalized OD [1]: 0.01 OD
Mean normalized OD [2]: 0.039 OD
Mean normalized OD [3]: 0.019 OD
binding result [4]: no binding (tested: 10 µg/ml)

B14: Mrc2_2 CRD-mouse IgG2a-Fc fusion protein (Fc fusion)
chain: FQGHCYRLQAEKRSWQESKRACLRGGGDLLSIHSMAELEFITKQIKQEVEELWIGLNDLKLQMNFEWSDGSLVSFTHWHPFEPNNFRDSLEDCVTIWGPEGRWNDSPCNQSLPSICKGGGSGGGSGGGS
Mean normalized OD [1]: 0.017 OD
Mean normalized OD [2]: 0.009 OD
Mean normalized OD [3]: 0.038 OD
binding result [4]: no binding (tested: 10 µg/ml)

B15: Mrc2_3 CRD-mouse IgG2a-Fc fusion protein (Fc fusion)
chain: HSPSCYWLGEDQVIYSDARRLCTDHGSQLVTITNRFEQAFVSSLIYNWEGEYFWTALQDLNSTGSFRWLSGDEVIYTHWNRDQPGYRRGGCVALATGSAMGLWEVKNCTSFRARYICGGGSGGGSGGGS
Mean normalized OD [1]: 0.003 OD
Mean normalized OD [2]: 0.01 OD
Mean normalized OD [3]: 0.003 OD
binding result [4]: no binding (tested: 10 µg/ml)

B16: Mrc2_7 CRD-mouse IgG2a-Fc fusion protein (Fc fusion)
chain: YLNHTFRLLQKPLRWKDALLLCESRNASLAHVPDPYTQAFLTQAARGLQTPLWIGLASEEGSRRYSWLSEEPLNYVSWQDEEPQHSGGCAYVDVDGTWRTTSCDTKLQGAVCGGGSGGGSGGGS
Mean normalized OD [1]: 0.002 OD
Mean normalized OD [2]: 0 OD
Mean normalized OD [3]: 0.002 OD
binding result [4]: no binding (tested: 10 µg/ml)

B17: Pkd1l3 CRD-mouse IgG2a-Fc fusion protein (Fc fusion)
chain: GGNSCYQLNRLFCDFQEADNYCHAQRGRLAHTWNPKLRGFLKSFLNEETVWWVRGNLTLPGSHPGINQTGGDDVLRNQKPGECPSVVTHSNAVFSRWNLCIEKHHFICQGGGSGGGSGGGS
Mean normalized OD [1]: 0.046 OD
Mean normalized OD [2]: 0.017 OD
Mean normalized OD [3]: -0.001 OD
binding result [4]: no binding (tested: 10 µg/ml)
